Assay results from article PMC10896730.

Molecular target: oxidative phosphorylation (OXPHOS) complex III (CIII), all subunits (mouse (endogenous in skeletal muscle)) (UniProt Q9CZ13)
Experiment: affinity purification with mass spectrometry; IP of UQCRC2 from mouse hindlimb Skm extracts, LC–MS; stoichiometry from the slopes of protein abundance against effective number of tryptic peptides; approximate

Chain of UniProt Q9CZ13 (Q9CZ13 whole entry, looked up, tested part not stated, one chain of several): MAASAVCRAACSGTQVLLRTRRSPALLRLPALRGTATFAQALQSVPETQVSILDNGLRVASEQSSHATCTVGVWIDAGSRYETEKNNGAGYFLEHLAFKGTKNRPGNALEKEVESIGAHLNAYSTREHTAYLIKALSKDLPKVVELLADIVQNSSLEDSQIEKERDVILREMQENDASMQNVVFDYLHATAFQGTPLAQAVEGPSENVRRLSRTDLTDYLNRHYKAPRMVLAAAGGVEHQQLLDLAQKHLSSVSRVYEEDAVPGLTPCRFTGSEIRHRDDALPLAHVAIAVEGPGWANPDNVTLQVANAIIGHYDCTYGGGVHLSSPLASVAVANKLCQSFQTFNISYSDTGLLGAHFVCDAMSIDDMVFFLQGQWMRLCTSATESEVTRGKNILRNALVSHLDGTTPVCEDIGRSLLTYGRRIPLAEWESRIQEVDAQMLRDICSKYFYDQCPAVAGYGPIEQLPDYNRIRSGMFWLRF

stoichiometry N (ETF complex per CIII complex): 0.5
B1: electron-transfer flavoprotein dehydrogenase (ETFDH) (natural protein)
chain: SSTSAVPQITTHYTVHPREKDKRWEGVNMERFAEEADVVIVGAGPAGLSAAIRLKQLAAEQGKDIRVCLVEKAAQIGAHTLSGACLDPAAFKELFPDWKEKGAPLNTPVTEDRFAILTEKHRIPVPILPGLPMNNHGNYIVRLGHLVSWMGEQAEALGVEVYPGYAAAEVLYHEDGSVKGIATNDVGIQKDGAPKTTFERGLELHAKVTVFAEGCHGHLAKQLYKKFDLRASCDAQTYGIGLKELWIIDEKKWKPGRVDHTVGWPLDRHTYGGSFLYHLNEGEPLVAVGFVVGLDYQNPYLSPFREFQRWKHHPSIQPTLEGGKRIAYGARALNEGGLQSIPKLTFPGGLLIGCSPGFMNVPKIKGTHTAMKSGSLAAESIFKQLTSENLQSKTTGLHVTEYEDNLKQSWVWKELHAVRNIRPSCHGILGVYGGMIYTGIFYWILRGMEPWTLKHKGSDSDQLKPAKDCTPIEYPKPDGQISFDLLSSVALSGTNHEHDQPAHLTLKDDSIPVNRNLSIYDGPEQRFCPAGVYEFVPLEQGDGFRLQINAQNCVHCKTCDIKDPSQNINWVVPEGGGGPAYNGM
